Source: article PMC3765780, “Pyocyanin-induced mucin production is associated with redox modification of FOXA2”

Molecular target: T1, FOXA2 (immunoprecipitated from control NCI-H292 cells) (Homo sapiens? (NCI-H292 cells), UniProt Q9Y261 1-457)
T1 sequence: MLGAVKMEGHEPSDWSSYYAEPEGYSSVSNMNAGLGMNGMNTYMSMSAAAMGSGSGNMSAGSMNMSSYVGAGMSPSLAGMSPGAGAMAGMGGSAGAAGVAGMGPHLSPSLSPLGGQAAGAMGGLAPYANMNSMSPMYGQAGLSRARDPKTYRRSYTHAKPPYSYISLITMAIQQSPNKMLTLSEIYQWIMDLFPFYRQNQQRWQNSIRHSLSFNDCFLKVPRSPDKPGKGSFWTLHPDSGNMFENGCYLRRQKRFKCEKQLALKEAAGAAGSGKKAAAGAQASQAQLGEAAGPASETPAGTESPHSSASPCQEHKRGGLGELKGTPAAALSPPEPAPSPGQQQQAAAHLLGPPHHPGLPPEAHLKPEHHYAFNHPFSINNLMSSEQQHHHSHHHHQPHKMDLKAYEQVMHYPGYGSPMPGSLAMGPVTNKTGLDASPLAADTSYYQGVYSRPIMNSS
Assay: EMSA; untreated control cells; inhibited by 20-fold unlabeled probe and by anti-FOXA2 antibody; 10 mM Hepes pH 7.9, 1 mM EDTA, 5 mM MgCl2, 10% glycerol, DTT (printed '0.5 m MDTT', probably 0.5 mM), 1 mg/ml BSA, 1 ug poly(dI-dC); 2.5 ug FOXA2; 20 min, room
Conditions: protein: native; blunt

B1: MUC5B promoter FOXA2 site probe (dsDNA)
DNA 1: CCTCCCCGAGAGCAAACACACGTGGCTGGA
DNA 2: TCCAGCCACGTGTGTTTGCTCTCGGGGAGG
binding result: binds
